Data reported in US20180355061A1 (Janssen / Centocor, published 2018).

Assays:
[1] = biological target: T1, human PD-1 expressed on cells (human, UniProt Q15116 25-288); experiment: cell-based or functional assay
[2] = biological target: T2, human PD-1 (soluble analyte in SPR) (human, UniProt Q15116 25-170, limits assumed); experiment: SPR (ProteOn XPR36), mAb captured on anti-human IgG Fc, PD-1 as analyte, 25 C
T2 construct: also called CD279; PDCD1
Procedure: (§1) Affinity measurements were performed using a ProteOn XPR36 system (BioRad). […] Approximately 5000 RU (response units) of mAbs were immobilized. The kinetic experiments were performed at 25° C. in running buffer (DPBS+0.01% P20+100 μg/mL BSA). To perform kinetic experiments, 200 RU of mAbs were captured followed by injections of analytes (human and cyno PD-1) at concentrations ranging from 1.563 nM to 400 nM (in a […] serial dilution). The association phase was monitored for 3 minutes at 50 μL/min, then followed by 10 or 15 minutes of buffer flow (dissociation phase). The chip surface was regenerated with two 18 second pulses of 100 mM H₃PO₄ (Sigma, Cat #7961) at 100 μL/min.
(§2) The collected data were processed using ProteOn Manager software. First, the data was corrected for background using inter-spots. Then, double reference subtraction of the data was performed by using the buffer injection for analyte injections. The kinetic analysis of the data was performed using a Langmuir 1:1 binding model. The result for each mAb was reported in the format of ka (On-rate), kd (Off-rate) and KD (equilibrium dissociation constant).
Affinity of the parental and humanized antibodies to PD-1 was measured using SPR as described in Example 1.

[3] = biological target: T2, human PD-1 (soluble analyte in SPR); experiment: SPR (ProteOn XPR36), mAb captured on anti-human IgG Fc, human PD-1 as analyte, 25 C
Procedure: as §1, §2
(§3) Affinity of the antibodies to human and cyno PD-1 was measured using SPR as described in Example 1.

[4] = biological target: T1, human PD-1 expressed on cells; experiment: cell-based or functional assay; remark: listed apart in the source
[5] = biological target: T3, cyno PD-1 (soluble analyte in SPR) (cyno); experiment: SPR (ProteOn XPR36), mAb captured on anti-human IgG Fc, cyno PD-1 as analyte, 25 C
T3 construct: also called cynomolgus PD-1
Procedure: as §1, §2, §3

[6] = biological target: T1, human PD-1 expressed on cells; experiment: cell-based or functional assay; remark: listed apart in the source
[7] = biological target: T1, human PD-1 expressed on cells; experiment: cell-based or functional assay; remark: listed apart in the source

T2 sequence (Q15116 25-170 limits assumed): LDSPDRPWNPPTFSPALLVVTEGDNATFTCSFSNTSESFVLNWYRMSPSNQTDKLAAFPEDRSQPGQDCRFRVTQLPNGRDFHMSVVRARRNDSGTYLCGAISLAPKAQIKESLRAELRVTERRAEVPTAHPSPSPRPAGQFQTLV
T1 sequence (Q15116 25-288 limits assumed): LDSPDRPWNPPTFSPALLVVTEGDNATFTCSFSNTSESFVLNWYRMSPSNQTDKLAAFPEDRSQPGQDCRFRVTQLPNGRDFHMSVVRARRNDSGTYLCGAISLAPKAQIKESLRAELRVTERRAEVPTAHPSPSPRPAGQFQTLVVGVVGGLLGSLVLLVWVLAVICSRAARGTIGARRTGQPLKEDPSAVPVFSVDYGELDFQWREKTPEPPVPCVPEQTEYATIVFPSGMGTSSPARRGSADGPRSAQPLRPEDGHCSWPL

| % inhibition of activated T cells, CMV-PBMC assay, donor D1 [1] [%] | Kd [2] [nM] | koff [2] [s⁻¹] | kon [2] [M⁻¹ s⁻¹] | Kd [3] [nM] | koff [3] [s⁻¹] | kon [3] [M⁻¹ s⁻¹] | Mean % inhibition across two donors, CMV-PBMC assay [4] [%] | Kd [5] [nM] | koff [5] [s⁻¹] | kon [5] [M⁻¹ s⁻¹] | mean % inhibition of T cell proliferation, CMV-PBMC assay (FIG. 5B) [6] [%] | % inhibition at 10 ug/ml mAb, CMV-PBMC assay, donor D4 [7] [%] | % inhibition at 10 ug/ml mAb, CMV-PBMC assay, donor D5 [7] [%] | % inhibition at 10 ug/ml mAb, CMV-PBMC assay, donor D3 [7] [%] | Binder |
| --- | --- | --- | --- | --- | --- | --- | --- | --- | --- | --- | --- | --- | --- | --- | --- |
| 78.3 | 58.9 | 0.00351 | 59800 |  |  |  |  |  |  |  |  |  |  |  | PD1B878 (antibody, human IgG1, kappa, V domains shown, C84S variant of PD1B743, IgG1; also called VH PD1H405; VL PD1L469) VH: QVQLVQSGSELKKPGASVKVSCKASGYTFTDYSMHWVRQAPGQGLEWMGWINIETGEPTYAQGFTGRFVFSLDTSVSTAYLQISSLKAEDTAVYFCARDYYGTYFYAMDYWGQGTLVTVSS VL: EIVLTQSPATLSLSPGERATLSCTASSSVSSSYLHWYQQKPGLAPRLLIYSTSNLASGIPDRFSGSGSGTDYTLTISRLEPEDFAVYYCHQYHRSPLTFGQGTKLEIKR |
|  |  |  |  | 0.871 | 9.16e-05 | 105000 | 77.9 | 12 | 0.00162 | 135000 |  |  |  |  | PD1B1094 (antibody, human IgG1, kappa, V domains shown, also called VH PD1H586; VL PD1L652) VH: QVQLVQSGSELKKPGASVKVSCKASGYTFTDYSMHWVRQAPGQGLEWMGWINIETGHPTYAQGFTGRFVFSLDTSVSTAYLQISSLKAEDTAVYFCARDYYGTYFYAMDYWGQGTLVTVSS VL: EIVLTQSPATLSLSPGERATLSCTASSSVPSSYLHWYQQKPGLAPRLLIYSTSNLASGIPDRFSGSGSGTDYTLTISRLEPEDFAVYYCHQYHRSPLTFGQGTKLEIKR |
|  |  |  |  | 0.223 | 2.37e-05 | 106000 | 74.8 | 1.43 | 0.000185 | 130000 |  |  |  |  | PD1B1090 (antibody, human IgG1, kappa, V domains shown, also called VH PD1H585; VL PD1L651) VH: QVQLVQSGSELKKPGASVKVSCKASGYTFTDYSMHWVRQAPGQGLEWMGWINIETGYPTYAQGFTGRFVFSLDTSVSTAYLQISSLKAEDTAVYFCARDYYGTYFYAMDYWGQGTLVTVSS VL: EIVLTQSPATLSLSPGERATLSCTASSSFSSSYLHWYQQKPGLAPRLLIYSTSNLASGIPDRFSGSGSGTDYTLTISRLEPEDFAVYYCHQYHRSPLTFGQGTKLEIKR |
|  | 32.8 | 0.003 | 91500 |  |  |  |  |  |  |  | 58 | 30.5 | 64 |  | PD1B743 (antibody, human IgG1, kappa, V domains shown, Humanized PD1B505, IgG1; also called VH PD1H384; VL PD1L469) VH: QVQLVQSGSELKKPGASVKVSCKASGYTFTDYSMHWVRQAPGQGLEWMGWINIETGEPTYAQGFTGRFVFSLDTSVSTAYLQICSLKAEDTAVYFCARDYYGTYFYAMDYWGQGTLVTVSS VL: EIVLTQSPATLSLSPGERATLSCTASSSVSSSYLHWYQQKPGLAPRLLIYSTSNLASGIPDRFSGSGSGTDYTLTISRLEPEDFAVYYCHQYHRSPLTFGQGTKLEIKR |
|  |  |  |  | 3.19 | 0.000394 | 124000 | 72.7 | 31.8 | 0.00544 | 171000 |  |  |  |  | PD1B1086 (antibody, human IgG1, kappa, V domains shown, also called VH PD1H586; VL PD1L469) VH: QVQLVQSGSELKKPGASVKVSCKASGYTFTDYSMHWVRQAPGQGLEWMGWINIETGHPTYAQGFTGRFVFSLDTSVSTAYLQISSLKAEDTAVYFCARDYYGTYFYAMDYWGQGTLVTVSS VL: EIVLTQSPATLSLSPGERATLSCTASSSVSSSYLHWYQQKPGLAPRLLIYSTSNLASGIPDRFSGSGSGTDYTLTISRLEPEDFAVYYCHQYHRSPLTFGQGTKLEIKR |
|  | 23.2 | 0.00832 | 359000 |  |  |  |  |  |  |  | 65.9 | 24.2 | 75 |  | PD1B750 (antibody, human IgG1, kappa, V domains shown, Humanized PD1B506, IgG1; also called VH PD1H388; VL PD1L470) VH: QVQLVQSGAEVKKPGASVKVSCKASGYTFTTYWMHWVRQAPGQGLEWMGEINPNNGGINYAQKFQGRVTLTVDKSISTAYMELSRLRSDDTAVYYCTIDYYDYGGYWGQGTLVTVSS VL: DIQMTQSPSSLSASVGDRVTITCKASQNVGTNVAWYQQKPEKAPKSLIYSASYRYSGVPSRFSGSGSGTDFTLTISSLQPEDFATYYCQQYNIYPYTFGQGTKLEIKR |
|  | 18.1 | 0.00214 | 118000 |  |  |  |  |  |  |  | 36.7 | 0.3 | 69.3 | 27.4 | PD1B756 (antibody, human IgG1, kappa, V domains shown, Humanized PD1B512, IgG1; also called VH PD1H389; VL PD1L472) VH: QITLKESGPTLVKPTQTLTLTCTFSGFSLSTSGMGVSWIRQPPGKALEWLAHIYWDDDKRYSPSLKSRLTITKDTSKNQVVLTMTNMDPVDTGTYYCVRKGYYDYGYVMDYWGQGTLVTVSS VL: DIVMTQSPLSLPVTPGEPASISCRSSKSLLHSNGITYLNWYLQKPGQSPQLLIYQMSNLASGVPDRFSGSGSGTDFTLKISRVEAEDVGVYYCAQNLELPLTFGGGTKVEIKR |
